The target of this test is mouse PD-1 (programmed cell death-1), wild type, expressed on CHO cells (mouse) (UniProt Q02242). As to the kind of experiment: biomembrane force probe.
UniProt Q02242, sequence (Q02242 25-288): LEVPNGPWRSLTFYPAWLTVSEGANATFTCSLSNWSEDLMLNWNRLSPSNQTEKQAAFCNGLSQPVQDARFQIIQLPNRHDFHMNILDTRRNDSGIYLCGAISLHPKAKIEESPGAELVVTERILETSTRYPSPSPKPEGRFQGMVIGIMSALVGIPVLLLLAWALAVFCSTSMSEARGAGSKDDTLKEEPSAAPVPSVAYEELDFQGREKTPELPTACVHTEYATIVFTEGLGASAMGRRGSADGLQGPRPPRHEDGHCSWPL

For “mouse PD-L2 with C-terminal biotin (from UniProt Q9WUL5 20-221) (ligand)”, the F1/2 (force at which 50% of the bonds rupture) stood at 12.1 pN.

These data come from article PMC10462004.
